Measured values published in US20250263482A1 (SHIJIAZHUANG YILING PHARMACEUTICAL, published 2025).
One block for each binder: values may come before it.

Target: T1, human CLDN18.2 expressed on cells (human)
T1 construct: Tight junction membrane protein; also called huCLDN18.2
Test: flow cytometry (geometric mean) on CLDN18.2-expressing 293T cells, Alexa Fluor 647 anti-human IgG Fc secondary
Method: CLDN18.2-expressing 293T cells and CLDN18.1-expressing 293T cells at a density of 2×10⁶ cells/ml in FACS buffer ([…]) were mixed with a dilution series ([…] in FACS buffer) of the chimeric antibodies, the reference antibody, or a IgG negative control (50 μL) in a 96-well V-bottom plate and incubated for 30 min on ice. After a wash with 200 μL/well FACS buffer, cells were resuspended in 30 μL/well secondary antibody Alexa Fluor® 647 AffiniPure Goat Anti-Human IgG, […] specific (Jackson, Cat. #109-605-098) and incubated for 20 min on ice. After three washes with 200 μL/well FACS buffer, cells were resuspended with 150 μl/well FACS buffer and subjected to FACS using BD LSR II Flow Cytometer (HTS). Geometric mean was used for data analysis and plots were made using Prism GraphPad.

EC50 (read off the curve): ~0.8 µg/mL
B1: YL-G1-19-01 (antibody, human IgG1, kappa, V domains shown)
VH: QVQLQQSGAELVRPGTSVKVSCKASGYAFTNYLIEWVKQRPGQGLEWIGVINPGSGGTNYNEKFKGKATLTADKSSNTAYMQLSSLTSEDSAVYFCARVYYGNSFGYWGQGTLVTVSA
VL: DIVMTQSPSSLTVTAGEKVTMSCKSSQSLLNSGNQKNYLTWYQQKPGQPPKLLIYWASTRESGVPDRFTGSGSGTDFTLTISSVQAEDLAVYYCQNEYFYPFTFGSGTKLEIKR
notes: also called 1st generation chimeric antibody

EC50 (read off the curve): ~0.6 µg/mL
B2: YL-G1-19-02 (antibody, human IgG1, kappa)
heavy: not shown
light: DIVMTQSPSSLTVTAGEKVTMSCKSSQSLLNSGNQKNYLTWYQQRPGQPPKLLIYWASTRESGVPVRFTGSGSGTDFTLTISSVQAEDLAVYYCQNAYIYPLTFGTGTKLELKRTVAAPSVFIFPPSDEQLKSGTASVVCLLNNFYPREAKVQWKVDNALQSGNSQESVTEQDSKDSTYSLSSTLTLSKADYEKHKVYACEVTHQGLSSPVTKSFNRGEC
notes: also called YL-G1-02; YL-G-19-02
